# Results taken from patent US8110387B2, “Polypeptide having NADH dependent HMF reductase activity” (C5 Ligno Technologies Lund AB, priority 2007, dated 2012).
# What was measured:
# Type in all cases: biochemical, Saccharomyces cerevisiae
# [1] = In vitro NADH-dependent furan reductase activity of ADH1 mutants in cell extracts, furfural as substrate; parameters: key: —: no detectable activity; detectable activity (ranging from moderate (+) to very high (+++)); detectable activity (ranging from moderate (+) to very high (+++)); detectable activity (ranging from moderate (+) to very high (+++)); conditions: 10 mM furfural, 200 μM NADH, cell extract of CEN.PK 113-5D transformant, pH 6.7, 30° C.
# Experimental: (§1) Plasmid carrying individual or combined mutations within the ADH1 gene were introduced in strain CEN.PK 113-5D by transformation according to the lithium acetate method (Gietz et al., 1992, Improved method for high efficiency transformation of intact yeast cells. Nucleic Acids Research 20:1425). Selection was performed on SD plates without uracil. The resulting strains were grown aerobically at 30° C. in 25 mL SD medium without uracil (in 250 mL baffled flask). Cell extracts were prepared by harvesting the cells at OD620 7.5-8.5, re-suspending the cells in Y-PER solution (Pierce, Rockford, Ill., USA), 1 mL/0.6gr cells, shaking at room temperature for 50 min. The supernatant was collected after centrifugation for 20 min at 15000 g. In vitro NADH-dependent furan reductase activity was measured by following the oxidation of NADH at 340 nm in a Hitachi U-2000 spectrophotometer (Hitachi, Tokyo, Japan). The assay consisted of 10 mM furaldehyde (HMF or furfural), 200 μM NADH and cell extract in 100 mM phosphate buffer (pH 6.7) at 30° C.
# [2] = In vitro NADH-dependent furan reductase activity of ADH1 mutants in cell extracts, HMF as substrate; parameters: key: —: no detectable activity; detectable activity (ranging from moderate (+) to very high (+++)); detectable activity (ranging from moderate (+) to very high (+++)); detectable activity (ranging from moderate (+) to very high (+++)); conditions: 10 mM HMF, 200 μM NADH, cell extract of CEN.PK 113-5D transformant, pH 6.7, 30° C.
# Experimental: as §1
# [3] = Enzyme kinetics of Adh1 variants, NADH-dependent reduction of furfural
# Experimental: (§2) Cells were grown aerobically at 30° C. in 25 mL SD medium without uracil (in 250 mL baffled flask). Cell extracts were prepared by harvesting the cells at OD620 7.5-8.5, re-suspending the cells in Y-PER solution (Pierce, Rockford, Ill., USA), 1 mL/0.6 gr cells, shaking at room temperature for 50 min. The supernatant was collected after centrifugation for 20 min at 15000 g.
# (§3) In vitro NADH-dependent furan reductase activity was measured by following the oxidation of NADH at 340 nm in a Hitachi U-2000 spectrophotometer (Hitachi, Tokyo, Japan). NADH-dependent aldehyde reduction was determined (Wahlbom and Hahn-Hägerdal, 2002) with 200 μM NADH. Reduction kinetics were determined for acetaldehyde (range […]-100 mM), furfural (100 μM-20 mM) and HMF (500 μM-20 mM). For native Adh1 furfural was used up to 40 mM.
# (§4) Modeling was performed according to the Michaelis-Menten equation with the addition of a substrate inhibition constant: V=(Vmax·[S])/(Km+[S]+[S]2/KI), V—velocity, Vmax—maximal velocity, Km—affinity constant, Ki—substrate inhibition constant, and [S]—substrate concentration. Parameter value estimation was according to the least square method, using the solver function in Microsoft® Excel 2002. HMF activity parameters of strain BY474-ADH1-S117L were estimated without the substrate inhibition constant due to a clear discrepancy of the substrate inhibition model with actual data.
# [4] = Enzyme kinetics of Adh1 variants, NADH-dependent reduction of acetaldehyde
# Experimental: as §2, §3, §4
# [5] = 200 μM NADH, cell extract of BY4741
molecule,measurement,setting,value
"S110P: native Adh1 with the single substitution S110P (protein, listed as Saccharomyces cerevisiae) MSIPETQKGVIFYESHGKLEYKDIPVPKPKANELLINVKYSGVCHTDLHAWHGDWPLPTKLPLAGGHEGAGVVVGMGENVKGWKIGDYAGIKWLNGSCMACEYCELGNEPNCPHADSSGYTHDGSFQQYATADAVQAAHIPQGTDLAEVAPVLCAGITVYKALKSANLMAGHWVAISGAAGGLGSLAVQYAKAMGYRVLGIDGGEGKEELFRSIGGEVFIDFTKEKDIVGAVLKATDGGAHGVINVSVSEAAIEASTRYVRANGTTVLVGMPAGAKCCSDVFNQVVKSISIVGSYVGNRADTREALDFFARGLVKSPIKVVGLSTLPEIYEKMEKGQIVGRYVVDTSK",NADH-dependent Activity Furfural Reductase,[1],++
"Y295C: native Adh1 with the single substitution Y295C (protein, listed as Saccharomyces cerevisiae) MSIPETQKGVIFYESHGKLEYKDIPVPKPKANELLINVKYSGVCHTDLHAWHGDWPLPTKLPLAGGHEGAGVVVGMGENVKGWKIGDYAGIKWLNGSCMACEYCELGNESNCPHADSSGYTHDGSFQQYATADAVQAAHIPQGTDLAEVAPVLCAGITVYKALKSANLMAGHWVAISGAAGGLGSLAVQYAKAMGYRVLGIDGGEGKEELFRSIGGEVFIDFTKEKDIVGAVLKATDGGAHGVINVSVSEAAIEASTRYVRANGTTVLVGMPAGAKCCSDVFNQVVKSISIVGSCVGNRADTREALDFFARGLVKSPIKVVGLSTLPEIYEKMEKGQIVGRYVVDTSK",NADH-dependent Activity HMF reductase,[2],+
same,NADH-dependent Activity Furfural Reductase,[1],+++
"V59T-Q148E-I152V-L117S-Y295C: mutated Adh1 from TMB3000 with reverse mutation at position 110 (protein, UniProt P00330 2-348, looked up, variant V59T Q148E I152V L117S Y295C) Alcohol dehydrogenase 1: SIPETQKGVIFYESHGKLEYKDIPVPKPKANELLINVKYSGVCHTDLHAWHGDWPLPTKLPLVGGHEGAGVVVGMGENVKGWKIGDYAGIKWLNGSCMACEYCELGNESNCPHADSSGYTHDGSFQQYATADAVQAAHIPQGTDLAEVAPVLCAGITVYKALKSANLMAGHWVAISGAAGGLGSLAVQYAKAMGYRVLGIDGGEGKEELFRSIGGEVFIDFTKEKDIVGAVLKATDGGAHGVINVSVSEAAIEASTRYVRANGTTVLVGMPAGAKCCSDVFNQVVKSISIVGSCVGNRADTREALDFFARGLVKSPIKVVGLSTLPEIYEKMEKGQIVGRYVVDTSK",NADH-dependent Activity HMF reductase,[2],+
same,NADH-dependent Activity Furfural Reductase,[1],+
"V59T-Q148E-I152V-S110P-L117S: mutated Adh1 from TMB3000 with reverse mutation at position 295 (protein, UniProt P00330 2-348, looked up, variant V59T Q148E I152V S110P L117S) Alcohol dehydrogenase 1: SIPETQKGVIFYESHGKLEYKDIPVPKPKANELLINVKYSGVCHTDLHAWHGDWPLPTKLPLVGGHEGAGVVVGMGENVKGWKIGDYAGIKWLNGSCMACEYCELGNEPNCPHADSSGYTHDGSFQQYATADAVQAAHIPQGTDLAEVAPVLCAGITVYKALKSANLMAGHWVAISGAAGGLGSLAVQYAKAMGYRVLGIDGGEGKEELFRSIGGEVFIDFTKEKDIVGAVLKATDGGAHGVINVSVSEAAIEASTRYVRANGTTVLVGMPAGAKCCSDVFNQVVKSISIVGSYVGNRADTREALDFFARGLVKSPIKVVGLSTLPEIYEKMEKGQIVGRYVVDTSK",NADH-dependent Activity Furfural Reductase,[1],+
"BY4741-control: native S. cerevisiae Adh1 (V59, S110, L117, Q148, I152, Y295) overexpressed in ΔAdh1 strain BY4741 (protein, UniProt P00330 2-348, looked up) Alcohol dehydrogenase 1: SIPETQKGVIFYESHGKLEYKDIPVPKPKANELLINVKYSGVCHTDLHAWHGDWPLPVKLPLVGGHEGAGVVVGMGENVKGWKIGDYAGIKWLNGSCMACEYCELGNESNCPHADLSGYTHDGSFQQYATADAVQAAHIPQGTDLAQVAPILCAGITVYKALKSANLMAGHWVAISGAAGGLGSLAVQYAKAMGYRVLGIDGGEGKEELFRSIGGEVFIDFTKEKDIVGAVLKATDGGAHGVINVSVSEAAIEASTRYVRANGTTVLVGMPAGAKCCSDVFNQVVKSISIVGSYVGNRADTREALDFFARGLVKSPIKVVGLSTLPEIYEKMEKGQIVGRYVVDTSK",[S]Vmax - substrate concentration at observed Vmax,[3],30 mM
same,Ki (substrate inhibition constant),[3]; [5],1363 mM
same,obsVmax (observed Vmax),[3]; substrate furfural,4345 mU/mg
same,Km,"[3]; substrate furfural, 200 μM NADH, cell extract of BY4741",18.8 mM
same,Vmax,"[3]; substrate furfural, 200 μM NADH, cell extract of BY4741, model with substrate inhibition",6530 (mU)/mg
same,[S]Vmax - substrate concentration at observed Vmax,[4],1 mM
same,Ki (substrate inhibition constant),[4]; [5],12.5326 mM
same,obsVmax (observed Vmax),[4]; substrate acetaldehyde,35300 mU/mg
same,Km,"[4]; substrate acetaldehyde, 200 μM NADH, cell extract of BY4741",0.217 mM
same,Vmax,"[4]; substrate acetaldehyde, 200 μM NADH, cell extract of BY4741, model with substrate inhibition",45070 (mU)/mg
